Test results from patent US10925971B2, “Methods of treating PRLR positive breast cancer” (Regeneron Pharmaceuticals, Inc., priority 2016, dated 2021).

Molecular target: T1, hPRLR-mmH (SEQ ID NO:406) (Homo sapiens, UniProt P16471)
T1 construct: this experiment was conducted with a truncated form of PRLR (i.e., hPRLR-mmH)
Assay: Epitope mapping by hydrogen/deuterium exchange with MALDI-TOF MS
Type: binding
Description: Experiments were conducted to determine the amino acid residues of PRLR with which H1H6958N2 interacts. For this purpose hydrogen/deuterium (H/D) exchange epitope mapping was carried out. A general description of the H/D exchange method is set forth in e.g., Ehring (1999) Analytical Biochemistry 267(2):252-259; and Engen and Smith (2001) Anal. Chem. 73:256A-265A.
To map the binding epitope(s) of antibody H1H6958N2 on hPRLR via H/D exchange, a construct comprising a recombinant extracellular domain of hPRLR with a C-terminal myc-myc-hexahistidine tag (hPRLR-mmH; SEQ ID NO: SEQ ID NO:406) was buffer exchanged to PBS with a final concentration of 8 mg/mL, and antibody H1H6958N2 was covalently attached to N-hydroxysuccinimide (NHS) agarose beads (GE Lifescience)
In the ‘on-solution/off-beads’ (on-exchange in solution followed by off-exchange on beads) experiment, the hPRLR was deuterated for 5 min or 10 min in PBS buffer prepared with D2O, and then bound to H1H6958N2 beads through a 2 min incubation. The hPRLR-bound beads were washed with PBS aqueous buffer (prepared with H2O) and incubated PBS buffer for half of the on-exchange time. After the off-exchange, the bound hPRLR was eluted from beads with an ice-cold low pH TFA solution. The eluted hPRLR was then digested with immobilized pepsin (Thermo Scientific) for 5 min. The resulting peptides were desalted using ZipTip® chromatographic pipette tips and immediately analyzed by UltrafleXtreme matrix assisted laser desorption ionization time of flight (MALDI-TOF)-TOF mass spectrometry (MS).
In the ‘on-beads/off-beads’ (on-exchange on beads followed by off-exchange on beads) experiment, hPRLR was first bound to H1H6958N2 beads and then incubated for 5 min or 10 min in D2O for on-exchange. The following steps (off-exchange, pepsin digestion, and MS analysis) were carried out as described for the ‘on-solution/off-beads’ procedure. The centroid values or average mass-to-charge ratios (m/z) of all the detected peptides were calculated and compared between these two sets of experiments.
The results are summarized in Table 29 which provides a comparison of the centroid m/z values for all the detected peptides identified by liquid chromatography and MS following the H/D exchange and peptic digest procedure described above. For purposes of the present Example, a positive difference (A) of at least 0.20 m/z in both experiments indicates amino acids protected by antibody binding. Segments meeting this criterion are indicated by bold text and an asterisk (*) in Table 29. [Note that, although this experiment was conducted with a truncated form of PRLR (i.e., hPRLR-mmH; SEQ ID NO: 406), residue numbering in the far left column of Table 29 has been adjusted to correspond to the amino acid sequence of the full-length PRLR protein represented by SEQ ID NO: 404.]

[1] = hPRLR peptide residues 61-71 of SEQ ID NO: 404, Experiment I 5 min on-/2.5 min off-exchange
[2] = hPRLR peptide residues 61-71 of SEQ ID NO: 404, Experiment II 10 min on-/5 min off-exchange
[3] = hPRLR peptide residues 64-71 of SEQ ID NO: 404, Experiment I 5 min on-/2.5 min off-exchange
[4] = hPRLR peptide residues 64-71 of SEQ ID NO: 404, Experiment II 10 min on-/5 min off-exchange
[5] = hPRLR peptide residues 64-72 of SEQ ID NO: 404, Experiment I 5 min on-/2.5 min off-exchange
[6] = hPRLR peptide residues 64-72 of SEQ ID NO: 404, Experiment II 10 min on-/5 min off-exchange
[7] = hPRLR peptide residues 72-94* of SEQ ID NO: 404 (* = protected by antibody binding), Experiment I 5 min on-/2.5 min off-exchange
[8] = hPRLR peptide residues 72-94* of SEQ ID NO: 404 (* = protected by antibody binding), Experiment II 10 min on-/5 min off-exchange
[9] = hPRLR peptide residues 72-95* of SEQ ID NO: 404 (* = protected by antibody binding), Experiment I 5 min on-/2.5 min off-exchange
[10] = hPRLR peptide residues 72-95* of SEQ ID NO: 404 (* = protected by antibody binding), Experiment II 10 min on-/5 min off-exchange
[11] = hPRLR peptide residues 96-101* of SEQ ID NO: 404 (* = protected by antibody binding), Experiment I 5 min on-/2.5 min off-exchange
[12] = hPRLR peptide residues 96-101* of SEQ ID NO: 404 (* = protected by antibody binding), Experiment II 10 min on-/5 min off-exchange
[13] = hPRLR peptide residues 96-102* of SEQ ID NO: 404 (* = protected by antibody binding), Experiment I 5 min on-/2.5 min off-exchange
[14] = hPRLR peptide residues 96-102* of SEQ ID NO: 404 (* = protected by antibody binding), Experiment II 10 min on-/5 min off-exchange
[15] = hPRLR peptide residues 133-147 of SEQ ID NO: 404, Experiment I 5 min on-/2.5 min off-exchange
[16] = hPRLR peptide residues 133-147 of SEQ ID NO: 404, Experiment II 10 min on-/5 min off-exchange
[17] = hPRLR peptide residues 134-147 of SEQ ID NO: 404, Experiment I 5 min on-/2.5 min off-exchange
[18] = hPRLR peptide residues 134-147 of SEQ ID NO: 404, Experiment II 10 min on-/5 min off-exchange
[19] = hPRLR peptide residues 135-147 of SEQ ID NO: 404, Experiment I 5 min on-/2.5 min off-exchange
[20] = hPRLR peptide residues 135-147 of SEQ ID NO: 404, Experiment II 10 min on-/5 min off-exchange
[21] = hPRLR peptide residues 136-147 of SEQ ID NO: 404, Experiment I 5 min on-/2.5 min off-exchange
[22] = hPRLR peptide residues 136-147 of SEQ ID NO: 404, Experiment II 10 min on-/5 min off-exchange
[23] = hPRLR peptide residues 137-147 of SEQ ID NO: 404, Experiment I 5 min on-/2.5 min off-exchange
[24] = hPRLR peptide residues 137-147 of SEQ ID NO: 404, Experiment II 10 min on-/5 min off-exchange
[25] = hPRLR peptide residues 168-179 of SEQ ID NO: 404, Experiment I 5 min on-/2.5 min off-exchange
[26] = hPRLR peptide residues 168-179 of SEQ ID NO: 404, Experiment II 10 min on-/5 min off-exchange
[27] = hPRLR peptide residues 168-180 of SEQ ID NO: 404, Experiment I 5 min on-/2.5 min off-exchange

T1 sequence (P16471 with tags, fused parts or gaps): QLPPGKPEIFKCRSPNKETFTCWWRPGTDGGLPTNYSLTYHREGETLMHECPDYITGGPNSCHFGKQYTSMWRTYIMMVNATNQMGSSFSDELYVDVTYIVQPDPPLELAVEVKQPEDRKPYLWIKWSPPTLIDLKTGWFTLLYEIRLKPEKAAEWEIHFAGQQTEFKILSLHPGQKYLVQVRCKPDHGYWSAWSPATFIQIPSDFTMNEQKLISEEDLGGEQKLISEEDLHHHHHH

B1: H1H6958N2: anti-PRLR antibody, receptor blocking, human IgG1 Fc form of H2M6958N2 of Table 1; HCVR/LCVR SEQ ID NOs 290/298 (antibody, V domains shown)
VH: QVQLVESGGGVVQPGRSLRLSCGASGFTFRNYGMQWVRQGPGKGLEWVTLISFDGNDKYYADSVKGRFTISRDNSKNTLFLQMNSLRTEDTAVYYCARGGDFDYWGQGTLVTVSS
VL: DIQMTQSPSSLSASVGDRVTITCRASQDIRKDLGWYQQKPGKAPKRLIYAASSLHSGVPSRFSGSGSGTEFTLTISSLQPEDFATYYCLQHNSYPMYTFGQGTKLEIK
Delta centroid greater than 0.20 m/z in both experiments
  epitope of PRLR with which the antibody interacts: amino acids 72 to 102 of SEQ ID NO: 404
[1]
  centroid m/z, on-beads/off-beads: 1306.50 m/z
  centroid m/z, on-solution/off beads: 1306.39 m/z
  Δ (centroid m/z difference): −0.10 m/z
[2]
  centroid m/z, on-beads/off-beads: 1306.38 m/z
  centroid m/z, on-solution/off beads: 1306.34 m/z
  Δ (centroid m/z difference): −0.04 m/z
[3]
  centroid m/z, on-beads/off-beads: 1005.05 m/z
  centroid m/z, on-solution/off beads: 1005.13 m/z
  Δ (centroid m/z difference): 0.07 m/z
[4]
  centroid m/z, on-beads/off-beads: 1005.18 m/z
  centroid m/z, on-solution/off beads: 1005.13 m/z
  Δ (centroid m/z difference): −0.05 m/z
[5]
  centroid m/z, on-beads/off-beads: 1136.15 m/z
  centroid m/z, on-solution/off beads: 1136.16 m/z
  Δ (centroid m/z difference): 0.01 m/z
[6]
  centroid m/z, on-beads/off-beads: 1136.49 m/z
  centroid m/z, on-solution/off beads: 1136.33 m/z
  Δ (centroid m/z difference): −0.16 m/z
[7]
  centroid m/z, on-beads/off-beads: 2572.17 m/z
  centroid m/z, on-solution/off beads: 2573.91 m/z
  Δ (centroid m/z difference): 1.74 m/z
[8]
  centroid m/z, on-beads/off-beads: 2572.12 m/z
  centroid m/z, on-solution/off beads: 2573.74 m/z
  Δ (centroid m/z difference): 1.62 m/z
[9]
  centroid m/z, on-beads/off-beads: 2703.43 m/z
  centroid m/z, on-solution/off beads: 2705.49 m/z
  Δ (centroid m/z difference): 2.06 m/z
[10]
  centroid m/z, on-beads/off-beads: 2703.70 m/z
  centroid m/z, on-solution/off beads: 2705.29 m/z
  Δ (centroid m/z difference): 1.60 m/z
[11]
  centroid m/z, on-beads/off-beads: 870.20 m/z
  centroid m/z, on-solution/off beads: 870.70 m/z
[12]
  centroid m/z, on-beads/off-beads: 870.20 m/z
  centroid m/z, on-solution/off beads: 870.71 m/z
  Δ (centroid m/z difference): 0.52 m/z
[13]
  centroid m/z, on-beads/off-beads: 1001.22 m/z
  centroid m/z, on-solution/off beads: 1001.59 m/z
  Δ (centroid m/z difference): 0.37 m/z
[14]
  centroid m/z, on-beads/off-beads: 1001.14 m/z
  centroid m/z, on-solution/off beads: 1001.62 m/z
  Δ (centroid m/z difference): 0.48 m/z
[15]
  centroid m/z, on-beads/off-beads: 1786.37 m/z
  centroid m/z, on-solution/off beads: 1786.59 m/z
  Δ (centroid m/z difference): 0.22 m/z
[16]
  centroid m/z, on-beads/off-beads: 1786.52 m/z
  centroid m/z, on-solution/off beads: 1786.55 m/z
  Δ (centroid m/z difference): 0.02 m/z
[17]
  centroid m/z, on-beads/off-beads: 1673.29 m/z
  centroid m/z, on-solution/off beads: 1673.36 m/z
  Δ (centroid m/z difference): 0.07 m/z
[18]
  centroid m/z, on-beads/off-beads: 1673.39 m/z
  centroid m/z, on-solution/off beads: 1673.50 m/z
  Δ (centroid m/z difference): 0.11 m/z
[19]
  centroid m/z, on-beads/off-beads: 1602.02 m/z
  centroid m/z, on-solution/off beads: 1602.15 m/z
  Δ (centroid m/z difference): 0.13 m/z
[20]
  centroid m/z, on-beads/off-beads: 1602.04 m/z
  centroid m/z, on-solution/off beads: 1602.15 m/z
  Δ (centroid m/z difference): 0.11 m/z
[21]
  centroid m/z, on-beads/off-beads: 1502.88 m/z
  centroid m/z, on-solution/off beads: 1502.85 m/z
  Δ (centroid m/z difference): −0.03 m/z
[22]
  centroid m/z, on-beads/off-beads: 1502.88 m/z
  centroid m/z, on-solution/off beads: 1502.79 m/z
  Δ (centroid m/z difference): −0.09 m/z
[23]
  centroid m/z, on-beads/off-beads: 1373.68 m/z
  centroid m/z, on-solution/off beads: 1373.78 m/z
  Δ (centroid m/z difference): 0.09 m/z
[24]
  centroid m/z, on-beads/off-beads: 1373.84 m/z
  centroid m/z, on-solution/off beads: 1373.80 m/z
  Δ (centroid m/z difference): −0.04 m/z
[25]
  centroid m/z, on-beads/off-beads: 1447.71 m/z
  centroid m/z, on-solution/off beads: 1447.73 m/z
  Δ (centroid m/z difference): 0.02 m/z
[26]
  centroid m/z, on-beads/off-beads: 1447.78 m/z
  centroid m/z, on-solution/off beads: 1447.76 m/z
  Δ (centroid m/z difference): −0.02 m/z
[27]
  centroid m/z, on-beads/off-beads: 1633.66 m/z
  centroid m/z, on-solution/off beads: 1633.59 m/z
